For this assay, the target named is human recombinant FVIII (Advate) (human, UniProt P00451 20-2351). The assay can be described thus: ELISA. For orientation: In an ELISA, binding on a coated surface is turned into a signal by an enzyme label.
human recombinant FVIII (Advate), sequence (P00451 20-2351): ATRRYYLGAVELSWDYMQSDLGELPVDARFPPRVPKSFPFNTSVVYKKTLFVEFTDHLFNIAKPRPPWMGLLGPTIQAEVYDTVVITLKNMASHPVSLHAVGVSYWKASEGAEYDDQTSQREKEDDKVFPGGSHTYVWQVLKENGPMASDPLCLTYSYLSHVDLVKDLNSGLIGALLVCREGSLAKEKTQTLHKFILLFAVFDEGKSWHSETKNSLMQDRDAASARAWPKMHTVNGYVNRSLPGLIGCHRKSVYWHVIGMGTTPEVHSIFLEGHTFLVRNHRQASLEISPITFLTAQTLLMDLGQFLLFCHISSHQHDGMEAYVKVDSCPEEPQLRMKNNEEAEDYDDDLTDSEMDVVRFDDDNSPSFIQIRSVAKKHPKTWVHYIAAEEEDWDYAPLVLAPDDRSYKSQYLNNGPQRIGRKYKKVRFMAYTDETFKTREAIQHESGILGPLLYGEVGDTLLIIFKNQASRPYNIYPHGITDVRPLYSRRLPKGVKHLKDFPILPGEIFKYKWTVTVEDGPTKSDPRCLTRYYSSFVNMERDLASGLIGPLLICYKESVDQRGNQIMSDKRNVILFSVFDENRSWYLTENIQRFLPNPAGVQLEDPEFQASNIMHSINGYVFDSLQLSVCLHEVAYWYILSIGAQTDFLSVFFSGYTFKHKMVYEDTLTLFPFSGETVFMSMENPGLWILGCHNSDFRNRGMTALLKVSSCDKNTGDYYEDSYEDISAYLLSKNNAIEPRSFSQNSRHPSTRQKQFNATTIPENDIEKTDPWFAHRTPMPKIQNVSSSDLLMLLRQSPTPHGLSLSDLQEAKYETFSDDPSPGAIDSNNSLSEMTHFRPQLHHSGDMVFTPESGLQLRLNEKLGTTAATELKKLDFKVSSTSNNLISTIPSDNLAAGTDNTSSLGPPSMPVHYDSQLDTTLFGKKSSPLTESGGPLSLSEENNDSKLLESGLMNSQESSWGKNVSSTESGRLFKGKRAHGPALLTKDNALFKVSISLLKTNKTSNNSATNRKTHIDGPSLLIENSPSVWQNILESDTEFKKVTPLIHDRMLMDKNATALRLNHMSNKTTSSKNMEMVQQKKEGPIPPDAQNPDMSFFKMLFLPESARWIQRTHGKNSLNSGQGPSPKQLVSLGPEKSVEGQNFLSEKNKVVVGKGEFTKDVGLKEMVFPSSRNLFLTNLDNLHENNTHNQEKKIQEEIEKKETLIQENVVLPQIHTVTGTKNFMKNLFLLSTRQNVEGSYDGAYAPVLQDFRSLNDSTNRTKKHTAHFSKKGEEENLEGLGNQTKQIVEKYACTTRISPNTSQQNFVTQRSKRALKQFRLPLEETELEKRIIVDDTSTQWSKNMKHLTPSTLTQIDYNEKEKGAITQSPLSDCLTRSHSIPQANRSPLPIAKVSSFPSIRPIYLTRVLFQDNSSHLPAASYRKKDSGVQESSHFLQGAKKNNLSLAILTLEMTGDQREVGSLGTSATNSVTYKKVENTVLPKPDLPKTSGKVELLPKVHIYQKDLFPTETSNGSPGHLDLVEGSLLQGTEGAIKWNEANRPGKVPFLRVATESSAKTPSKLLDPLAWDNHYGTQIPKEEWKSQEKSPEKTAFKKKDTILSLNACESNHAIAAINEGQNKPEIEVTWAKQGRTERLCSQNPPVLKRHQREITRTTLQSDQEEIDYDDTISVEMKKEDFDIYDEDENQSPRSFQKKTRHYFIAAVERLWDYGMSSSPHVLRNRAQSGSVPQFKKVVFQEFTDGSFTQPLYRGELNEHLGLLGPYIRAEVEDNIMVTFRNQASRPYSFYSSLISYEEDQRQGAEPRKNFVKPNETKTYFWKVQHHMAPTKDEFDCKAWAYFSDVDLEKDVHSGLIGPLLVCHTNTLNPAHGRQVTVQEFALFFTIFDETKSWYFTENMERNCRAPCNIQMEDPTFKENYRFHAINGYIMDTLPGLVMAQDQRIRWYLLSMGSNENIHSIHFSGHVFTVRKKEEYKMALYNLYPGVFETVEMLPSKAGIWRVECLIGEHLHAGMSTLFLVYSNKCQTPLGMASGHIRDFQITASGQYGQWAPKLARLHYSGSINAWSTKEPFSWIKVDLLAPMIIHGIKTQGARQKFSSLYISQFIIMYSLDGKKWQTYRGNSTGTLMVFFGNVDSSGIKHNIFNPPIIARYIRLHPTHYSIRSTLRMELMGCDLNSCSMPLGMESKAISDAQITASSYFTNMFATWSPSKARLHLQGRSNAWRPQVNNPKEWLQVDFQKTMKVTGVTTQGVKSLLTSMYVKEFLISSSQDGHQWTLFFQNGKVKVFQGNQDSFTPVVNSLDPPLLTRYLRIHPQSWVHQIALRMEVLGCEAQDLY

B1: recombinant CLEC4M-Fc chimera (Fc fusion, human, UniProt Q9H2X3 71-399, looked up)
chain: QVSKVPSSLSQEQSEQDAIYQNLTQLKAAVGELSEKSKLQEIYQELTQLKAAVGELPEKSKLQEIYQELTRLKAAVGELPEKSKLQEIYQELTRLKAAVGELPEKSKLQEIYQELTRLKAAVGELPEKSKLQEIYQELTELKAAVGELPEKSKLQEIYQELTQLKAAVGELPDQSKQQQIYQELTDLKTAFERLCRHCPKDWTFFQGNCYFMSNSQRNWHDSVTACQEVRAQLVVIKTAEEQNFLQLQTSRSNRFSWMGLSDLNQEGTWQWVDGSPLSPSFQRYWNSGEPNNSGNEDCAEFSGSGWNDNRCDVDNYWICKKPAACFRDE
In the case of B1, the Kd was less than 0.1 nM.

Usually Kd stands for the concentration at which binding is half-saturated.

These data come from publication PMC7083068 (Journal of thrombosis and haemostasis : JTH, 2019).
